Ends that are not written are not given here.
Legend:
[1] = molecular target: Integrin αvβ3 (Homo sapiens) (UniProt P06756); details: cited from earlier work
[2] = molecular target: T1, chemokine domain of fractalkine (FKN-CD), wild type (UniProt P78423 25-100); assay: ELISA; FKN-CD, γC399tr, FN-H120 or FN8-11 coated on wells (5 µM in Figure 4d; GST removed from FN-H120 and FN8-11); GST-tagged S2 peptides added in PBS, 2 h at room temperature; detected with HRP-conjugated anti-GST antibody; details: both partners purified
T1 construct: fractalkine (CX3CL1), N-terminal chemokine domain, printed as residues 1-76; The limits 1-76 are printed for the chemokine domain in general (introduction); also called WT FKN-CD; CX3CL1
T1 sequence (looked up): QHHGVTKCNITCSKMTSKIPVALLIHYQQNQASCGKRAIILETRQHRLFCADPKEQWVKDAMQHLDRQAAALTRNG

Integrin αvβ3 (Homo sapiens), sequence (P06756 31-992, chain 1 of 2): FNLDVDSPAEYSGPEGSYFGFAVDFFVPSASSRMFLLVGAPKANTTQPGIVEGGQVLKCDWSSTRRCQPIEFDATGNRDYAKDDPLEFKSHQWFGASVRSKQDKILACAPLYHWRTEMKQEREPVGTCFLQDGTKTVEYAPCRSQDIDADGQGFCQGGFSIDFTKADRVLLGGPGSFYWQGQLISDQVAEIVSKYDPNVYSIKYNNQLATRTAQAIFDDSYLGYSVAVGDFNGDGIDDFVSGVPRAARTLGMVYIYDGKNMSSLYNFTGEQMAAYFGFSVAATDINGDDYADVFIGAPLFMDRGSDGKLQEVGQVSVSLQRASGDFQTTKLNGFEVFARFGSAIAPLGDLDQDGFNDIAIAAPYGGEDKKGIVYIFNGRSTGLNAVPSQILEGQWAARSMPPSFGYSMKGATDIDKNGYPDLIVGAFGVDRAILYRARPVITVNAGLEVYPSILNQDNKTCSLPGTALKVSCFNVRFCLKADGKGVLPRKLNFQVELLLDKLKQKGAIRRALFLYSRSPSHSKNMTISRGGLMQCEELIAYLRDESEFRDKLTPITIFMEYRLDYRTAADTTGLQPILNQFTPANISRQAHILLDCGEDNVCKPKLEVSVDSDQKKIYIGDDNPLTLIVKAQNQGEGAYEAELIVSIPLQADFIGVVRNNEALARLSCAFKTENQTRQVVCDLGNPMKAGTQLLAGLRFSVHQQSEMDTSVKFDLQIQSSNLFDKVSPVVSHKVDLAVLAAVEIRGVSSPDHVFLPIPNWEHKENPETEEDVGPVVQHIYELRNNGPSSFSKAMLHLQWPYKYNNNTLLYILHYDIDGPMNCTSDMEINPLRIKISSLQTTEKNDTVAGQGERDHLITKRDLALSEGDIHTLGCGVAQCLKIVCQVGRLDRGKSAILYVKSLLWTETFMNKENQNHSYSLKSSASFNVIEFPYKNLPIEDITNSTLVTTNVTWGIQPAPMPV
Integrin αvβ3 (Homo sapiens), sequence (P05106 27-718, chain 2 of 2, further chain): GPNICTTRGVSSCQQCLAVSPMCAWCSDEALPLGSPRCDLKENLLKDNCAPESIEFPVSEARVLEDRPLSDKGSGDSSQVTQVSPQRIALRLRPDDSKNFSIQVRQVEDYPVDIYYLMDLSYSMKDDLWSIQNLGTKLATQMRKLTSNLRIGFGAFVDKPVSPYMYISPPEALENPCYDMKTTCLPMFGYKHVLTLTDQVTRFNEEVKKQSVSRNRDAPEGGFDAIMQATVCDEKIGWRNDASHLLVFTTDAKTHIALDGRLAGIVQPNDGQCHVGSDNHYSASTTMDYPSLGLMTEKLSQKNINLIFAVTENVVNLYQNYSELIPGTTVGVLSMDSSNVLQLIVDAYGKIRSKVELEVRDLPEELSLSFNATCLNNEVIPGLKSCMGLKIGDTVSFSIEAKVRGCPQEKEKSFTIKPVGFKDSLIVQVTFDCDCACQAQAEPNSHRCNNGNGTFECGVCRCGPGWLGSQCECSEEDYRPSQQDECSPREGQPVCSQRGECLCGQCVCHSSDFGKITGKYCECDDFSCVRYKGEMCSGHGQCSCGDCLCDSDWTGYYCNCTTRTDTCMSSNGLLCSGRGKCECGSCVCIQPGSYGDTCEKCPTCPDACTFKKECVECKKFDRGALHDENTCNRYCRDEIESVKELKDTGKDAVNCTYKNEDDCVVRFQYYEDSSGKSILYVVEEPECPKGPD

Fractalkine chemokine domain (from UniProt P78423)
Kd [1]: 0.3 nM

B1: GST fusion protein of site 2 peptide of integrin β3 (S2-β3 peptide) (peptide)
chain: QPNDGQSHVGSDNHYSASTTM
modifications: also: GST fusion protein
notes: The 6His tag was put into the BamHI site of pGEX-2T and the peptide's oligonucleotides into the BamHI/EcoRI site of the resulting vector; also called S2 peptide
binding result [2]: binds

From article PMC4008574 (PLoS ONE, 2014)
